The source of these data is patent US20220089705A1.

Assay [1] addresses aP2 (species not stated in the passage) (Homo sapiens (Human)) (UniProt P15090). Kind of assay: SPR and Octet ranking of H3 variants; value of the parent H3; species of aP2 not stated. In general terms: In BLI a coated tip is dipped into the sample, and binding shifts an interference pattern.
Assay [2] has the same target. Kind of assay: column head 'Affinity'; assay and aP2 species not printed on the sheet (the two other values of the column, 6.03 and 5.82 µM, equal the human aP2 averages of FIG. 31).

B1: H3, mouse anti-aP2 monoclonal antibody (H3 gL1/gH1) (antibody, V domains shown)
VH: QVQLQQPGAELVKPGASVKLSCKASGYTFTSNWITWVKQRPGQGLEWIGDIYPGSGSTTNNEKFKSKATLTVDTSSSTAYMQLSSLTSEDSAVYYCARLRGYYDYFDFWGQGTTLTVSS
VL: EVVLTQSPALMAASPGEKVTITCSVSSSISSSNLHWYQQKSETSPKPWIYGTSNLASGVPVRFSGSGSGTSYSLTISSMEAEDAATYYCQQWSHYPLTFGAGTKLELK
As to B1, the equilibrium dissociation constant (Kd) in assay [1] was < 0.07 µM.

B2: CA33, rabbit-mouse hybrid anti-aP2 monoclonal antibody (Rabbit Ab 909) (antibody, V domains shown)
VH: QSVEESGGRLVTPGTPLTLTCTVSGFSLSTYYMSWVRQAPGKGLEWIGIIYPSGSTYCASWAKGRFTISKASTTVDLKITSPTTEDTATYFCARPDNDGTSGYLSGFGLWGQGTLVTVSS
VL: DVVMTQTPASVSEPVGGTVTIKCQASEDISRYLVWYQQKPGQPPKRLIYKASTLASGVPSRFKGSGSGTDFTLTISDLECDDAATYYCQCTYGTYAGSFFYSFGGGTEVVVE
For B2, the Kd in assay [2] is 6.5 µM.

For orientation: Kd means the constant that tells how readily two partners part at equilibrium.
